Assay in all cases: cleavage_in_vitro
Data set [1] concerns T1, OMNI-101 (metagenomic, unknown).
T1 sequence: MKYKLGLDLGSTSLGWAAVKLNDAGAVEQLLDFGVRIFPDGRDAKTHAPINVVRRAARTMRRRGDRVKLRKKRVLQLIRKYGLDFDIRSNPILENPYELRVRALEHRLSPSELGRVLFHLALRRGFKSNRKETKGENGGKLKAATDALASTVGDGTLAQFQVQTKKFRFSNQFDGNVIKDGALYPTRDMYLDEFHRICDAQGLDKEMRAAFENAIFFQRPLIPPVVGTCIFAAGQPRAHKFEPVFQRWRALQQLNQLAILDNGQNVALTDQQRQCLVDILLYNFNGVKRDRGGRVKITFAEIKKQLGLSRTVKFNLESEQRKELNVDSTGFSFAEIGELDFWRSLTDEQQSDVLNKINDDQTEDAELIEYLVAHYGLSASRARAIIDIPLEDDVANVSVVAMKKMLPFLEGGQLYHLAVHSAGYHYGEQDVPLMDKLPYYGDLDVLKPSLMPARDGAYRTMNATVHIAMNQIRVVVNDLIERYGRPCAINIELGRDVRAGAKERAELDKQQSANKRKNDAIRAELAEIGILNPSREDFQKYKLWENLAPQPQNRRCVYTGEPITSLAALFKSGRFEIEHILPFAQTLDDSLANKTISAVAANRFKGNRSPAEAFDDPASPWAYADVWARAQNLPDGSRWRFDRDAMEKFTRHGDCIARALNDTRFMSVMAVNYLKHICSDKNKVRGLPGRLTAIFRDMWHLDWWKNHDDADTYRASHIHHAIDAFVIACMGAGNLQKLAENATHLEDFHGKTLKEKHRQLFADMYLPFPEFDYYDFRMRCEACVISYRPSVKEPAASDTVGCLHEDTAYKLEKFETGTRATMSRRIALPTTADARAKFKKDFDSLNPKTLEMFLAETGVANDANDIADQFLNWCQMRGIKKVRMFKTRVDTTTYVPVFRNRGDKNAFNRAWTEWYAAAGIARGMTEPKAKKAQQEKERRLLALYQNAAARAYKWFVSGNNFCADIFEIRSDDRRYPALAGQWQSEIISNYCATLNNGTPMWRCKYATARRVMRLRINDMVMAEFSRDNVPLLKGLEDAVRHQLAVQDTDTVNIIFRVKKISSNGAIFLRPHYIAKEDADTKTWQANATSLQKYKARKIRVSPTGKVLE
Particulars: TXTL; PAM NRRRNNNN

The test system of data set [2] is T2, OMNI-104 (metagenomic, unknown).
T2 sequence: T1 sequence with T151A, Q1084K
Conditions: TXTL; PAM NRRRNYCN

Data set [3] deals with T3, OMNI-105 (metagenomic, unknown).
T3 sequence: T1 sequence with T151A, T1080P
Particulars: TXTL; PAM NRRRNNNN

For data set [4], the system named is T4, OMNI-134 (metagenomic, unknown).
T4 sequence: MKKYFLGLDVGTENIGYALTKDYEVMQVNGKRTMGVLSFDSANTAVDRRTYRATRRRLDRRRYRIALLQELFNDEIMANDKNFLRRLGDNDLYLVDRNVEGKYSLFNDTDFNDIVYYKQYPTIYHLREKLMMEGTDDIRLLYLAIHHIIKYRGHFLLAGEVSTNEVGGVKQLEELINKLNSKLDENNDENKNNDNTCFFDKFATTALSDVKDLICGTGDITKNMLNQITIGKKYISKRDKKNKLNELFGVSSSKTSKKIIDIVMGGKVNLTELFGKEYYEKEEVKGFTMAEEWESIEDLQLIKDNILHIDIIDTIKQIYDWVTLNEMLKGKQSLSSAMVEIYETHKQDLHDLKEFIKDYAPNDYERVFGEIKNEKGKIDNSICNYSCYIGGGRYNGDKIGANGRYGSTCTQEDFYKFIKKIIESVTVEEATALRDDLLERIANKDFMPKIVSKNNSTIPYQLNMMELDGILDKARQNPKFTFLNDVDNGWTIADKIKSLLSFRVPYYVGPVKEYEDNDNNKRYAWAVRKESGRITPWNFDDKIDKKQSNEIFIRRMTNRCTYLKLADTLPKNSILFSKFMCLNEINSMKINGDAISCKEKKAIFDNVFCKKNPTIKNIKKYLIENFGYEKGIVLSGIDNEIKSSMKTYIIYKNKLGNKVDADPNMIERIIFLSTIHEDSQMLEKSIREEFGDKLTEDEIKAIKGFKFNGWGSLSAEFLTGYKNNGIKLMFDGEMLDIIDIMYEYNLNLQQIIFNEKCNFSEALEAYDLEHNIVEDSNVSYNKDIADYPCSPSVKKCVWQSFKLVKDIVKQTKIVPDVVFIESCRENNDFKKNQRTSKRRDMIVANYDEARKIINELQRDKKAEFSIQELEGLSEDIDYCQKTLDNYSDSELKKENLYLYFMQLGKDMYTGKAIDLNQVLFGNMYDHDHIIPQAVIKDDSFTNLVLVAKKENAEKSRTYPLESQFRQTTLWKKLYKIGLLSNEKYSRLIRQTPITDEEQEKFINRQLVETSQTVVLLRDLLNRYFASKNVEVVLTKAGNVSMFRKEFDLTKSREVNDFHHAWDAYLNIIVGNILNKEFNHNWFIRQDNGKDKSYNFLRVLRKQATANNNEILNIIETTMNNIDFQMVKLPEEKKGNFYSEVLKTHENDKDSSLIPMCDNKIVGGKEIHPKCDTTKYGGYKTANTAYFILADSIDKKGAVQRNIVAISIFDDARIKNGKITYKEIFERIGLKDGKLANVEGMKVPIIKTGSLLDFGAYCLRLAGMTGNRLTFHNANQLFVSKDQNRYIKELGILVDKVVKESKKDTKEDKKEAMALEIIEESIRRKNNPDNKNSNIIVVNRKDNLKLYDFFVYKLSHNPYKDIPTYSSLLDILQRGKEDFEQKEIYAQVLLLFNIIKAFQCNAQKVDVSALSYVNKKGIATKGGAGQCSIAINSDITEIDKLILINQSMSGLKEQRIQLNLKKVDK
Particulars: TXTL; PAM NRAANYNN

Residue numbers refer to the chain shown, from its start.

As for “GGAAGAGCAGAGCCUUGGUCUCGUUGCACCUAGACACCGAGAAAUCGGUGUCUUUGUGUUAAUAAGAACCUUUCUUUGGAAAGGAGUUCACCAUUUACAAACAGGCACUUCGGUGUCUGUUUUUU / GGAAGAGCAGAGCCTTGGTCTCNNNNNNNN / NNNNNNNNGAGACCAAGGCTCTGCTCTTCC [T2 sgRNA 13 V1 ; T2 protospacer + 8N PAM library (pbPOS T2)]”, the activity (1-depletion score) in data set [1] turned out to be 0.98; in data set [2], 0.92; in data set [3], 1.
Take “GGAAGAGCAGAGCCUUGGUCUCGUUUGAGAGUAUUGUUAUUGAAAAAUAACAAUCGUUCAAAUAAGGUUUUACCUUAAGCAUCCUAUUGGAUCAGUCGACUAACCAGAGUCGACUAUUUUUU / GGAAGAGCAGAGCCTTGGTCTCNNNNNNNN / NNNNNNNNGAGACCAAGGCTCTGCTCTTCC [T2 sgRNA 34 V1 ; T2 protospacer + 8N PAM library (pbPOS T2)]”: the activity (1-depletion score) in data set [4] amounted to 0.94.
As for “GGAAGAGCAGAGCCUUGGUCUCGUUGCACCUAGACACCGAAAGGUGUCUUUGUGUUAAUAAGAACCUUUCUUUGGAAAGGAGUUCACCAUUUACAAACAGGCACUUCGGUGUCUGUUUUUUU / GGAAGAGCAGAGCCTTGGTCTCNNNNNNNN / NNNNNNNNGAGACCAAGGCTCTGCTCTTCC [T2 sgRNA 14 V1 ; T2 protospacer + 8N PAM library (pbPOS T2)]”, the activity (1-depletion score) came out at 0.97 in data set [1], 0.98 in data set [2] and 0.94 in data set [3].
As for “GGAAGAGCAGAGCCUUGGUCUCGUUUGAGAGUAUUGUUGAAAAACAAUCGUUCAAAUAAGGUUUUACCUUAAGCAUCCUAUUGGAUCAGUCGACUAAUCAGAGUCGACUAUUUUUU / GGAAGAGCAGAGCCTTGGTCTCNNNNNNNN / NNNNNNNNGAGACCAAGGCTCTGCTCTTCC [T2 sgRNA 19 V1 ; T2 protospacer + 8N PAM library (pbPOS T2)]”, the activity (1-depletion score) in data set [4] worked out at 0.98.
“GGAAGAGCAGAGCCUUGGUCUCGUUGCACCUAGACGAAAGUCUUUGUGUUAAUAAGAACCUUUCUUUGGAAAGGAGUUCACCAUUUACAAACAGGCACUUCGGUGUCUGUUUUUU / GGAAGAGCAGAGCCTTGGTCTCNNNNNNNN / NNNNNNNNGAGACCAAGGCTCTGCTCTTCC [T2 sgRNA 11 V1 ; T2 protospacer + 8N PAM library (pbPOS T2)]”: the activity (1-depletion score) in data set [1] is 0.96; in data set [2], 1; in data set [3], 0.98.
Consider “GGAAGAGCAGAGCCUUGGUCUCGUUAUUUUGAAUACUAGAAAGUGUAUUUAAAGUAAAUAAAAAGUUAAAUUUAAAGAUAAAAGUAAAUAAUUAGUAAAUUAACUUCUGAUAAUGUGAAAUUCAUUUGUUUUUU / GGAAGAGCAGAGCCTTGGTCTCNNNNNNNN / NNNNNNNNGAGACCAAGGCTCTGCTCTTCC [T2 sgRNA 39 V1 ; T2 protospacer + 8N PAM library (pbPOS T2)]”, for which, in data set [4], the activity (1-depletion score) is 0.99.

The values are drawn from patent publication US20240425885.
